Measured values as given in patent US20200291126A1 (EUTILEX, published 2020).
Positions count from the first letter of the chain named.

T1: V-Set And Immunoglobulin Domain Containing 4 (VSIG4) (human, UniProt Q9Y279 20-283, limits assumed)
T1 construct: also called CRIg; Z39Ig
T1 sequence (looked up): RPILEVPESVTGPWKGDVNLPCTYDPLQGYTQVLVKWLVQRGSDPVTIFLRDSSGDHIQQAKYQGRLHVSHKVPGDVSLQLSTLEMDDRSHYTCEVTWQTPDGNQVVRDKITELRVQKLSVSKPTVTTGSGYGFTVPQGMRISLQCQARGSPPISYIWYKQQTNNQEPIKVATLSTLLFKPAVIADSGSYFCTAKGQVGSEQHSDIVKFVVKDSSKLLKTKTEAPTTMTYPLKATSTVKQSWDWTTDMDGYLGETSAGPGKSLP

B1: EU103.2 antibody (antibody, V domains shown)
VH: QVQLQESGPGLVKPSQTLSLTCSFSGISLTTSGMGVGWIRQPPGKGLEWLADIFWDDNKYYNPSLKSRVTISVDTSKNQFSLKLSSVTAADTAVYYCVRVYYKNDGYFDVWGQGTLVTVSS
VL: EIVMTQSPATLSVSPGERATLSCRASKSVTTSGYSFMHWYQQKPGQAPRLLIYLASNLEPGIPARFSGSGSGTEFTLTISSLQSEDFAVYYCQHSRELPYTFGQGTKLEIK
notes: also called humanized anti-VSIG4 antibody generated from mouse anti-VSIG4 antibody mu6H8
B2: A1 antibody (EU103_T01.01) (antibody, V domains shown)
VH: QVTLKESGPTLVKPTQTLTLTCTFSGISLTTSGMGVGWIRQPPGKALEWLADIFWDDNKYYNPSLKSRLTITKDTSKNQVVLTMTNMDPVDTATYYCVRVYYKNDGYFDVWGKGTTVTVSS
VL: DIVLTQSPLSLPVTLGQPASISCRASKSVTTSGYSFMHWYQQRPGQSPRLLIYLASNLEPGVPDRFSGSGSGTDFTLKISRVEAEDVGVYYCQQSGELPYTFGQGTKLEIK
B3: A2 antibody (EU103_T01.02) (antibody, V domains shown)
VH: B2 VH
VL: B2 VL with S80F
B4: A1.3 antibody (EU103_T01.01S) (antibody, V domains shown)
VH: B2 VH with K5V, T15G, S67G, V81Y
VL: B2 VL
notes: Generated from A1
B5: A2.3 antibody (EU103_T01.02S) (antibody, V domains shown)
VH: B2 VH with K5V, T15G, S67G, V81Y
VL: B2 VL with S80F
notes: Generated from A2

Columns and labels:
[1] = biological target: T1, V-Set And Immunoglobulin Domain …; experiment: kinetic affinity measurement; method not stated at the table (SPR named for EU103.2 in FIG. 4B)
[2] = biological target: T1, V-Set And Immunoglobulin Domain …; experiment: kinetic affinity measurement; method not stated

Row | Binder | Kd [1] [nM] | koff [1] [s⁻¹] | kon [1] [M⁻¹ s⁻¹] | Kd [2] [nM] | koff [2] [s⁻¹] | kon [2] [M⁻¹ s⁻¹]
1 | B1 | 71.6 | 0.0131 | 183000 |  |  | 
2 | B2 |  |  |  | 8.69 | 0.00328 | 378000
3 | B3 |  |  |  | 8.23 | 0.00296 | 360000
4 | B4 |  |  |  | 7.95 | 0.0032 | 402000
5 | B5 |  |  |  | 7.64 | 0.00308 | 404000
